Patent US20260274983A1 (MODERNATX, published 2026)

T1: human FcRH5 (human, UniProt Q96RD9 16-977)
T1 construct: whole, on cells; also called huFcRH5; RPMI8226-huFcRH5
T1 sequence (looked up): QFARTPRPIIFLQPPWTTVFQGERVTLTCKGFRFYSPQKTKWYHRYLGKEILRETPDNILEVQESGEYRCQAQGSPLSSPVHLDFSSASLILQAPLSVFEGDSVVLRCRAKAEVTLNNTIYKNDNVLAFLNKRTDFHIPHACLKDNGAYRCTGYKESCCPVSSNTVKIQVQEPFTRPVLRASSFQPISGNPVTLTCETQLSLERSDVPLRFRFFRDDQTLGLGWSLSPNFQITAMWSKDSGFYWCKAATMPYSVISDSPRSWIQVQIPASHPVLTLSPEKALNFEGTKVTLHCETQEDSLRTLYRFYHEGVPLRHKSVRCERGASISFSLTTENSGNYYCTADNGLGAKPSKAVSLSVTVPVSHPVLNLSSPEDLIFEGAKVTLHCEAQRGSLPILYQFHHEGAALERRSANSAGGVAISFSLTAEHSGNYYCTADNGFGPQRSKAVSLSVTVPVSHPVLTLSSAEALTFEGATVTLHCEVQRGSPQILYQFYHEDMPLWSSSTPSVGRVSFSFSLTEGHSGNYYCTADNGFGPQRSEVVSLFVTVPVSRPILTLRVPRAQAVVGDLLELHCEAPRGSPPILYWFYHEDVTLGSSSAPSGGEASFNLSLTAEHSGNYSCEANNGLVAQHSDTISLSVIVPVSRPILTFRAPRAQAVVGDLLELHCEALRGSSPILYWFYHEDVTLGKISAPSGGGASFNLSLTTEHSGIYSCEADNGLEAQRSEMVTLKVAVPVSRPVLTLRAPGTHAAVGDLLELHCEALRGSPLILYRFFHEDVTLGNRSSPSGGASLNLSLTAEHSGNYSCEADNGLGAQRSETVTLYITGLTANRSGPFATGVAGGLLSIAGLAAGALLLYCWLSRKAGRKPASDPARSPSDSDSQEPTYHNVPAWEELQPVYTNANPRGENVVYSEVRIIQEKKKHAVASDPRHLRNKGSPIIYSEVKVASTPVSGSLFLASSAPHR


How the values were obtained:
[1] = biological target: cynomolgus FcRH5 (cynomolgus); experiment: FACS on RPMI8226-cyFcRH5 cells, VHH-His
human FcRH5 [2] = biological target: T1, human FcRH5; experiment: FACS binding to RPMI-huFCRH5 (HuFcRH5-RPMI8226) cells, VHH-His format
human FcRH5 [3] = biological target: T1, human FcRH5; experiment: FACS on RPMI8226-huFcRH5 cells, VHH-His

Binder	EC50 [1]	binding result (human FcRH5 [2])	EC50 (human FcRH5 [3])
FcRH5-VHH3 (VHH) VHH: QVQLVESGGGSVQAGGSLRLSCVDSGHTLSTYAMGWFRQAPGKEREFVAAIARDGGATYLSGSAQGRATISRDNAKSTVYLQMNNLKPDDTAVYYCAASSMFSTAKRDYSYWGQGTQVTVSSHHHHHH	97.2 nM	no binding (tested: 1000 nM)	–
FcRH5-VHH1 (VHH) VHH: QVQFVESGGGLVQAGGSLRLSCAASGITVSRNDMGWYRQAPGKQRELVAIMNRVGSTDTADSVKDRFTISRDNTKNTLYLQMNNLKPEDTAVYYCNALNTVITWPWGQGTQVTVSSHHHHHH	–	–	7.2 nM
